From paper doi:10.1101/2025.09.02.673855, “Bacteriophage T4 gene 32 protein: Insights into its Interaction with ssDNA, binding cooperativity, and conformational change” (bioRxiv, 2025)
Numbering of substitutions follows the chain as printed. In names and notes the source's numbering stands.

B1: Bacteriophage T4 gene 32 protein, full-length protein (1-301) (natural protein, UniProt P03695 1-301, looked up)
chain: MFKRKSTAELAAQMAKLNGNKGFSSEDKGEWKLKLDNAGNGQAVIRFLPSKNDEQAPFAILVNHGFKKNGKWYIETCSSTHGDYDSCPVCQYISKNDLYNTDNKEYSLVKRKTSYWANILVVKDPAAPENEGKVFKYRFGKKIWDKINAMIAVDVEMGETPVDVTCPWEGANFVLKVKQVSGFSNYDESKFLNQSAIPNIDDESFQKELFEQMVDLSEMTSKDKFKSFEELNTKFGQVMGTAVMGGAAATAAKKADKVADDLDAFNVDDFNTKTEDDFMSSSSGSSSSADDTDLDDLLNDL
notes: also called gp32; wild-type gp32; source: expression plasmid pYS6, induced, overexpressed and purified as previously described
B2: gp32 variant D215A, E218A, D223A (natural protein, bacteriophage T4, UniProt P03695 1-301, looked up)
chain: B1 chain with D215A, E218A, D223A
notes: gene 32 protein of bacteriophage T4 with three negative charges removed within and adjacent to the B helix (216-220); source: pYS6 variant, induced, overexpressed and purified as previously described
B3: gp32 variant E229A, E230A (natural protein, bacteriophage T4, UniProt P03695 1-301, looked up)
chain: B1 chain with E229A, E230A
notes: gene 32 protein of bacteriophage T4 with two negative charges removed within the C helix (228-237); source: pYS6 variant, induced, overexpressed and purified as previously described

Molecular target: the molecule itself
Assay: other fluorescence titration; aliquots of protein added to poly(εA), enhancement of ethenoadenylate fluorescence; 0.45 M NaCl, 0.02 M HEPES pH 7.68, 1x10^-4 M EDTA/Na+, 20°C; McGhee-von Hippel cooperative model, n = 8; ω is the cooperativity between adjacent proteins bound on the polynucleotide
B1 was tested, and the “cooperativity parameter ω (on poly(εA))” value was 2000.
In the case of B2, the “cooperativity parameter ω (on poly(εA))” value is reported as 120.
For B3, the “cooperativity parameter ω (on poly(εA))” value was 1000.
